The values that follow come from patent US20050118651A1.

In test [1] the target is soluble [125I]Aβ1-42 (synthetic Aβ1-42 sonicated in DMSO, radio-iodinated) (human) (UniProt P05067). Put plainly: capture radioimmunoassay, 50,000 CPM of 125I-Aβ1-42 (or 125I-Aβ1-40), antibody at 10 µg/ml.
Test [2] deals with synthetic Aβ1-42 peptide (aggregated in the ELISAs) (human) (UniProt P05067). Put plainly: ELISA on aggregated synthetic Aβ1-42; given as ED50. (In general: An ELISA detects its analyte on a solid surface through an enzyme-linked reagent.)

For antibody 10D5 (IgG1), the % of radioactive counts bound at 10 µg/ml in test [1] came out at 2%. Moreover, the half-maximal effective concentration (EC50) in test [2] turned out to be 0.053 nM.
For antibody 12B4 (IgG2a), in that order: 7% and 0.667 nM.

By EC50 is commonly meant the concentration giving half of the maximal effect. Low readings indicate an effect from little substance, high ones a need for much substance.
